Numbering of substitutions follows the chain as printed. Where “and” joins values, the source holds several entries; their conditions need not be identical. Identical values can stand only once.
T1: wild type cynomolgus monkey CD40 Fc fusion (cynomolgus monkey (Macaca …))
T1 construct: also called wt-cCD40; wt-cyno-CD40; not shown: human IgG1 Fc
T1 chain: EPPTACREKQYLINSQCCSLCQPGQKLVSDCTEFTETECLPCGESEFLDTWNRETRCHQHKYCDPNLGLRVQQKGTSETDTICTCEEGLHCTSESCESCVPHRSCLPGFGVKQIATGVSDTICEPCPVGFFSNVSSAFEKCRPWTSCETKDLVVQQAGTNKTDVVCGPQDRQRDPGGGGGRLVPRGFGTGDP

T2: human CD40 (H76R, W109L, L121P) Fc fusion (human)
T2 construct: Same construct as wt-hCD40 with H76R, W109L and L121P; also called hCD40-M5; hCD40-M5 (H76R, W109L, L121P); not shown: human IgG1 Fc
T2 chain: T1 chain with S95A, L106S, R142H, Q172L

T3: wild type cynomolgus monkey CD40 Fc fusion (cynomolgus monkey (Macaca …))
T3 construct: also called wt-cyno-CD40; wt-cCD40; not shown: human IgG1 Fc
T3 chain: T1 chain

T4: human CD40 (H76R, W109L, L121P) Fc fusion (human)
T4 construct: As m1 with H76R, W109L and L121P; also called hCD40-M5; not shown: human IgG1 Fc
T4 chain: T1 chain with S95A, L106S, R142H, Q172L

T5: wild type cynomolgus monkey CD40 Fc fusion (cynomolgus monkey; human)
T5 construct: also called wt-cyno-CD40; wt-cCD40; not shown: human IgG1 Fc
T5 chain: T1 chain

B1: BMS3h-37-2 (other)
VH: EVQLLESGGGLVQPGGSLRLSCAASGFTFEWYEMQWVRRAPGKGLEWVSAISGDGYRTYYADSVKGRFTISRDNSKNTLYLQMNSLRAEDTAVYYCAKELGYFDYWGRGTLVTVSS
notes: Anti-human CD40 domain antibody (dAb), single VH domain
B2: BMS3h-37-11 (other)
VH: B1 VH with R39K, W106R
notes: as for B1
B3: BMS3h-38-211 (other)
VH: EVQLLASGGGLVQPGGSLRLSCAASGFTFEEEEMIWVRQAPGKGLEWVSAISRQGGSTYYADSVKGRFTISRDNSKNTLYLQMNSLRAEDTAVYYCGKEPFRYDYWGQGTLVTVSS
notes: as for B1
B4: BMS3h-38-215 (other)
VH: B3 VH with R53G, Q54L, G56W
notes: as for B1
B5: BMS3h-38-217 (other)
VH: B3 VH with Q54R, G56Y
notes: as for B1
B6: BMS3h-56-2 (other)
VH: EVQLLESGGGLVQPGGSLRLSCAASGFTFRDYEMWWVRQAPGKGLERVSAINPQGTRTYYADSVKGRFTISRDNSKNTLYLQMNSLRAEDTAVYYCAKLPFTFDDWGQGTLVTVSS
notes: Anti-human CD40 domain antibody (dAb), a single human VH domain
B7: BMS3h-37-11 (other)
VH: B1 VH with R39K, W106R
notes: domain antibody (dAb), single VH domain
B8: BMS3h-38-211 (other)
VH: B3 VH
notes: as for B7
B9: BMS3h-38-215 (other)
VH: B3 VH with R53G, Q54L, G56W
notes: as for B7
B10: BMS3h-38-217 (other)
VH: B3 VH with Q54R, G56Y
notes: as for B7
B11: BMS3h-231 (other)
VH: EVQLLESGGGLVQPGGSLRLSCAASGFTFSAYNMWWARQAPGKGLEWVSWINSTGSRTYYADSVKGRFTISRDNSKNTLYLQMNSLRAEDTAVYYCAKNWHRGRFDYWGQGTLVTVSS
notes: dAb, single VH
B12: BMS3h-233 (other)
VH: EVQLLESGGGLVQPGGSLRLSCAASGFTFAHYNMRWVRQAPGKGLEWVSTITKTGFRTYYADSVKGRFTISRDNSKNTLYLQMNSLRAEDTAVYYCAKAGQFDFDYWGQGTLVTVSS
notes: dAb, single VH
B13: BMS3h-257 (other)
VH: EVQLLESGGGLVQPGGSLRLSCAASGFTFQNYQMAWVRQAPGKGLEWVSTISGTGKNTYYADSVKGRFTISRDNSKNTLYLQMNSLRAEDTAVYYCAKTPQNYFSVRRFDYWGQGTLVTVSS
notes: dAb, single VH
B14: BMS3h-287 (other)
VH: EVQLLESGGGLVQPGGSLRLSCAASGFTFTNYRMSWVRQAPGKGLEWVSAIDDLGVSTYYADSVKGRFTISRDNSKNTLYLQMNSLRAEDTAVYYCAKWRLKNSQPTDFDYWGQGTLVTVSS
notes: dAb, single VH

molecular target: T6, human CD40 (W109L, L121P) Fc fusion (human, UniProt P25942 21-193); assay: SPR, ProteOn XPR36; CD40-Fc captured, dAb analyte
T6 construct: Same construct as wt-hCD40 with W109L and L121P; also called hCD40-M4; hCD40 M4 (W109L, L121P); not shown: human IgG1 Fc

| Binder | binding result |
| --- | --- |
| B1 | no binding (tested: dAb tested up to 405 nM) |
| B2 | no binding (tested: dAb tested up to 405 nM) |
| B3 | no binding (tested: dAb tested up to 405 nM) |
| B4 | no binding (tested: dAb tested up to 405 nM) |
| B5 | no binding (tested: dAb tested up to 405 nM) |

Molecular target: T1, wild type cynomolgus monkey CD40 Fc …
Assay: SPR, ProteOn XPR36; CD40-Fc captured, dAb analyte
Experimental: (§1) Assays were performed on a BioRad ProteOn XPR36 SPR instrument. The SPR surfaces were prepared by immobilizing 8 μg/ml anti-human IgG(Fc) antibody (Biacore/GE Healthcare) in 10 mM sodium acetate pH 4.5 on a BioRad GLC sensor chip using standard ethyl(dimethylaminopropyl) carbodiimide (EDC)/N-hydroxysuccinimide (NHS) chemistry, with ethanolamine blocking. The running buffer for immobilization and kinetic binding analysis was 10 mM sodium phosphate, 130 mM sodium chloride, 0.05% tween 20, pH 7.1. CD40-Fc fusion proteins at concentrations of 20 μg/ml were captured in the vertical orientation on these surfaces via the Fc tail, and reference surfaces lacking CD40-Fc proteins were used for reference subtraction. […] The surfaces were regenerated in both horizontal and vertical orientations with 30 s pulses of 3 M MgCl₂ followed by running buffer at 60 μl/min. Sensogram data was double-referenced and then fitted to a 1:1 Langmuir model using BioRad ProteOn Manager V.2.1.0.38 software, to determine the association rate constant (ka), the dissociation rate constant (kd), and the equilibrium dissociation constant (KD).

| Binder | binding result |
| --- | --- |
| B1 | no binding (tested: dAb tested up to 405 nM) |
| B2 | no binding (tested: dAb tested up to 405 nM) |
| B3 | no binding (tested: dAb tested up to 405 nM) |
| B4 | no binding (tested: dAb tested up to 405 nM) |
| B5 | no binding (tested: dAb tested up to 405 nM) |

Molecular target: T2, human CD40 (H76R, W109L, L121P) Fc …
Assay: SPR, ProteOn XPR36; CD40-Fc captured, dAb analyte
Experimental: as §1

| Binder | binding result |
| --- | --- |
| B1 | no binding (tested: dAb tested up to 405 nM) |
| B2 | no binding (tested: dAb tested up to 405 nM) |
| B3 | no binding (tested: dAb tested up to 405 nM) |
| B4 | no binding (tested: dAb tested up to 405 nM) |
| B5 | no binding (tested: dAb tested up to 405 nM) |

molecular target: T7, human CD40 (W109R) Fc fusion (Chimpanzee CD40) (human, UniProt P25942 21-193); assay: SPR, ProteOn XPR36; CD40-Fc captured, dAb analyte
T7 construct: Same construct as wt-hCD40 with W109R (the residue of chimpanzee CD40); also called hCD40-M3; hCD40 M3 (W109R); not shown: human IgG1 Fc

| Binder | binding result |
| --- | --- |
| B1 | no binding (tested: dAb tested up to 405 nM) |
| B2 | no binding (tested: dAb tested up to 405 nM) |
| B3 | no binding (tested: dAb tested up to 405 nM) |
| B4 | no binding (tested: dAb tested up to 405 nM) |
| B5 | no binding (tested: dAb tested up to 405 nM) |

molecular target: T8, wild type human CD40 Fc fusion (human, UniProt P25942 21-193); assay: SPR, ProteOn XPR36; CD40-Fc captured, dAb analyte; 1:1 fit; repeat
T8 construct: also called wt-hCD40; not shown: human IgG1 Fc

| Binder | Kd [nM] | koff [s⁻¹] | kon [M⁻¹ s⁻¹] |
| --- | --- | --- | --- |
| B1 | 2 | 0.000426 | 213000 |
| B2 | 2.28 | 0.00064 | 281000 |
| B3 | 6.08 | 0.000728 | 120000 |
| B4 | 6.02 | 0.00082 | 136000 |
| B5 | 2.37 | 0.00034 | 144000 |

Molecular target: T3, wild type cynomolgus monkey CD40 Fc …
Assay: SPR (ProteOn XPR36), CD40-Fc captured via anti-human IgG(Fc), dAb as analyte, 25 C
Experimental: as §1

| Binder | binding result |
| --- | --- |
| B6 | no binding (tested: 405 nM (highest dAb concentration)) |

molecular target: T9, human CD40 (H76R) Fc fusion (human, UniProt P25942 21-193); assay: SPR ProteOn XPR36, CD40-Fc captured, dAb analyte
T9 construct: As m1 with H76R; also called hCD40-M1; not shown: human IgG1 Fc

| Binder | Kd [nM] |
| --- | --- |
| B7 | 2.4 |
| B8 | 4 |
| B9 | 3 |
| B10 | 3.4 |

molecular target: T10, wild type human CD40 Fc fusion (human, UniProt P25942 21-193); assay: SPR ProteOn XPR36, CD40-Fc captured, dAb analyte
T10 construct: also called wt-hCD40; not shown: human IgG1 Fc

| Binder | Kd |
| --- | --- |
| B7 | 1.9 nM and 2.3 nM |
| B8 | 3.3 nM and 6.1 nM |
| B9 | 2.1 nM and 6 nM |
| B10 | 2.3 nM and 2.4 nM |

molecular target: T11, human CD40 (H76R) Fc fusion (human, UniProt P25942 21-193); assay: SPR, ProteOn XPR36; CD40-Fc captured, dAb analyte; 1:1 fit;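 as to Kd: CD40-Fc captured on anti-human IgG(Fc) surface of a GLC chip, buffer pH 7.1, sensorgrams double-referenced against surfaces without CD40-Fc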;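 as to koff: CD40-Fc captured on anti-human IgG(Fc) surface of a GLC chip, buffer pH 7.1, sensorgrams double-referenced against surfaces without CD40-Fc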;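 as to kon: CD40-Fc captured on anti-human IgG(Fc) surface of a GLC chip, buffer pH 7.1, sensorgrams double-referenced against surfaces without CD40-Fc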
T11 construct: also called hCD40-M1; hCD40 M1 (H76R); not shown: human IgG1 Fc

| Binder | Kd [nM] | koff [s⁻¹] | kon [M⁻¹ s⁻¹] |
| --- | --- | --- | --- |
| B1 | 2.58 | 0.000562 | 217000 |
| B2 | 2.39 | 0.000717 | 300000 |
| B3 | 3.98 | 0.00051 | 128000 |
| B4 | 3.03 | 0.00053 | 175000 |
| B5 | 3.41 | 0.000481 | 141000 |

molecular target: T8, wild type human CD40 Fc fusion; assay: as above
Experimental: as §1

| Binder | Kd [nM] | koff [s⁻¹] | kon [M⁻¹ s⁻¹] |
| --- | --- | --- | --- |
| B1 | 1.96 | 0.000417 | 212000 |
| B2 | 1.92 | 0.00056 | 291000 |
| B3 | 3.26 | 0.000362 | 111000 |
| B4 | 2.1 | 0.000288 | 137000 |
| B5 | 2.34 | 0.000296 | 127000 |

molecular target: T12, human CD40 (BMS, CY24FEB06-01) (human, UniProt P25942 21-193); assay: ELISA RBA, competition with IZ-CD40L
T12 construct: Soluble reagent of the bead and ELISA RBA; It is detected with an anti-human IgG (Fc) mAb, so it may be a CD40-Ig fusion
Experimental: Clear walled High Bind, 384-well plates (Corning, UK) were coated with 25 μl of 1 μg/ml Neutravidin in 0.2 M carbonate-bicarbonate buffer, pH 9.4 overnight at 4° C. The following day, assay plates were washed with 0.1% (v/v) Tween PBS buffer, blocked with 1% (w/v) BSA in PBS for 1 hour at room temperature and washed again. […] Following washing of the assay plate, the dAb:human CD40 complex was incubated in the assay plate at room temperature for 2 hours with gentle agitation. […] Absorbance signal was measured using a SpectraMax® M5e plate reader (Molecular Devices) at 450 nm following neutralization with 1M HCl solution.

| Binder | EC50 |
| --- | --- |
| B11 | 670 nM and 870 nM |
| B12 | 2770 nM |
| B13 | 3210 nM and 1340 nM |
| B14 | > 10000 nM and 6760 nM |

Molecular target: T4, human CD40 (H76R, W109L, L121P) Fc …
Assay: SPR ProteOn XPR36;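 also: surface plasmon resonance with CD40-Fc fusions captured through their Fc on an anti-human IgG chip, sensorgrams reference-subtracted against surfaces lacking CD40-Fc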
Experimental: as §1

| Binder | binding result |
| --- | --- |
| B7 | no binding (tested: 405 nM) |
| B8 | no binding (tested: 405 nM) |
| B9 | no binding (tested: 405 nM) |
| B10 | no binding (tested: 405 nM) |

molecular target: T13, human CD40 (W109R) Fc fusion (Chimpanzee CD40) (human, UniProt P25942 21-193); assay: SPR ProteOn XPR36;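 also: surface plasmon resonance with CD40-Fc fusions captured through their Fc on an anti-human IgG chip, sensorgrams reference-subtracted against surfaces lacking CD40-Fc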
T13 construct: As m1 with W109R (residue of chimpanzee CD40); also called hCD40-M3; not shown: human IgG1 Fc

| Binder | binding result |
| --- | --- |
| B7 | no binding (tested: 405 nM) |
| B8 | no binding (tested: 405 nM) |
| B9 | no binding (tested: 405 nM) |
| B10 | no binding (tested: 405 nM) |

Molecular target: T5, wild type cynomolgus monkey CD40 Fc …
Assay: SPR ProteOn XPR36;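 also: surface plasmon resonance with CD40-Fc fusions captured through their Fc on an anti-human IgG chip, sensorgrams reference-subtracted against surfaces lacking CD40-Fc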
Experimental: as §1

| Binder | binding result |
| --- | --- |
| B7 | no binding (tested: 405 nM) |
| B8 | no binding (tested: 405 nM) |
| B9 | no binding (tested: 405 nM) |
| B10 | no binding (tested: 405 nM) |

molecular target: T14, human CD40 (W109L, L121P) Fc fusion (human, UniProt P25942 21-193); assay: SPR ProteOn XPR36;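 also: surface plasmon resonance with CD40-Fc fusions captured through their Fc on an anti-human IgG chip, sensorgrams reference-subtracted against surfaces lacking CD40-Fc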
T14 construct: As m1 with W109L and L121P; also called hCD40-M4; not shown: human IgG1 Fc

| Binder | binding result |
| --- | --- |
| B7 | no binding (tested: 405 nM) |
| B8 | no binding (tested: 405 nM) |
| B9 | no binding (tested: 405 nM) |
| B10 | no binding (tested: 405 nM) |

From patent US20200199244A1 (published 2020)
